Experimental data published in patent publication US20260242735A1 (UNIVERSIT T BASEL, published 2026).

How the values were obtained:
Assay in all cases: alanine scan, flow cytometry;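 further: HEK293-T cells transiently expressing single-residue alanine mutants of CD33 (alanine swapped to serine), antibody binding read by fluorescence in duplicate, background-subtracted, expressed relative to wild-type CD33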
human CD33 W22A = human CD33 W22A (human, UniProt P20138 18-364)
human CD33 L23A = human CD33 L23A (human, UniProt P20138 18-364)
human CD33 Q24A = human CD33 Q24A (human, UniProt P20138 18-364)
Chain of human CD33 Q24A (P20138 18-364 Q24A limits assumed): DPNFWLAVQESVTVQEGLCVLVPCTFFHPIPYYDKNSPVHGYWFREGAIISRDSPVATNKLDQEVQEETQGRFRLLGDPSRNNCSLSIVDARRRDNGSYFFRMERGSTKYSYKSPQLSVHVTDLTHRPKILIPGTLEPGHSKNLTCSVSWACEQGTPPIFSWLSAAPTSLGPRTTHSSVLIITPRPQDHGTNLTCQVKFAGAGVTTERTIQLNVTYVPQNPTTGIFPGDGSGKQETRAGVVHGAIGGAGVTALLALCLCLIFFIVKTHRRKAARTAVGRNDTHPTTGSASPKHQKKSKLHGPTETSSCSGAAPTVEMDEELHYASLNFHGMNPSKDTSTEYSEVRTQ

human CD33 V25A = human CD33 V25A (human, UniProt P20138 18-364)
human CD33 Q26A = human CD33 Q26A (human, UniProt P20138 18-364)
human CD33 E27A = human CD33 E27A (human, UniProt P20138 18-364)
Chain of human CD33 E27A (P20138 18-364 E27A limits assumed): as the sequence (P20138 18-364 Q24A limits assumed) above, with A7Q, E10A counted along it

human CD33 S28A = human CD33 S28A (human, UniProt P20138 18-364)
human CD33 V31A = human CD33 V31A (human, UniProt P20138 18-364)
Chain of human CD33 V31A (P20138 18-364 V31A limits assumed): as the sequence (P20138 18-364 Q24A limits assumed) above, with A7Q, V14A counted along it

human CD33 Q32A = human CD33 Q32A (human, UniProt P20138 18-364)
human CD33 E33A = human CD33 E33A (human, UniProt P20138 18-364)
human CD33 G34A = human CD33 G34A (human, UniProt P20138 18-364)
human CD33 C36A = human CD33 C36A (human, UniProt P20138 18-364)
human CD33 P40A = human CD33 P40A (human, UniProt P20138 18-364)
human CD33 F43A = human CD33 F43A (human, UniProt P20138 18-364)
human CD33 H45A = human CD33 H45A (human, UniProt P20138 18-364)
human CD33 I47A = human CD33 I47A (human, UniProt P20138 18-364)
human CD33 Y49A = human CD33 Y49A (human, UniProt P20138 18-364)
human CD33 D51A = human CD33 D51A (human, UniProt P20138 18-364)
Chain of human CD33 D51A (P20138 18-364 D51A limits assumed): as the sequence (P20138 18-364 Q24A limits assumed) above, with A7Q, D34A counted along it

human CD33 S54A = human CD33 S54A (human, UniProt P20138 18-364)
human CD33 V56A = human CD33 V56A (human, UniProt P20138 18-364)
human CD33 H57A = human CD33 H57A (human, UniProt P20138 18-364)
Chain of human CD33 H57A (P20138 18-364 H57A limits assumed): as the sequence (P20138 18-364 Q24A limits assumed) above, with A7Q, H40A counted along it

human CD33 Y59A = human CD33 Y59A (human, UniProt P20138 18-364)
Chain of human CD33 Y59A (P20138 18-364 Y59A limits assumed): as the sequence (P20138 18-364 Q24A limits assumed) above, with A7Q, Y42A counted along it

human CD33 A65S = human CD33 A65S (human, UniProt P20138 18-364)
Chain of human CD33 A65S (P20138 18-364 A65S limits assumed): as the sequence (P20138 18-364 Q24A limits assumed) above, with A7Q, A48S counted along it

human CD33 I66A = human CD33 I66A (human, UniProt P20138 18-364)
human CD33 S68A = human CD33 S68A (human, UniProt P20138 18-364)
human CD33 R69A = human CD33 R69A (human, UniProt P20138 18-364)
human CD33 D70A = human CD33 D70A (human, UniProt P20138 18-364)
human CD33 D18A = human CD33 D18A (human, UniProt P20138 19-364)
Chain of human CD33 D18A (P20138 18-364 D18A limits assumed): as the sequence (P20138 18-364 Q24A limits assumed) above, with D1A, A7Q counted along it

human CD33 P72A = human CD33 P72A (human, UniProt P20138 18-364)
Chain of human CD33 P72A (P20138 18-364 P72A limits assumed): as the sequence (P20138 18-364 Q24A limits assumed) above, with A7Q, P55A counted along it

human CD33 V73A = human CD33 V73A (human, UniProt P20138 18-364)
human CD33 T75A = human CD33 T75A (human, UniProt P20138 18-364)
human CD33 N76A = human CD33 N76A (human, UniProt P20138 18-364)
human CD33 K77A = human CD33 K77A (human, UniProt P20138 18-364)
human CD33 L78A = human CD33 L78A (human, UniProt P20138 18-364)
Chain of human CD33 L78A (P20138 18-364 L78A limits assumed): as the sequence (P20138 18-364 Q24A limits assumed) above, with A7Q, L61A counted along it

human CD33 Q80A = human CD33 Q80A (human, UniProt P20138 18-364)
Chain of human CD33 Q80A (P20138 18-364 Q80A limits assumed): as the sequence (P20138 18-364 Q24A limits assumed) above, with A7Q, Q63A counted along it

human CD33 Q83A = human CD33 Q83A (human, UniProt P20138 18-364)
Chain of human CD33 Q83A (P20138 18-364 Q83A limits assumed): as the sequence (P20138 18-364 Q24A limits assumed) above, with A7Q, Q66A counted along it

human CD33 E85A = human CD33 E85A (human, UniProt P20138 18-364)
human CD33 Q87A = human CD33 Q87A (human, UniProt P20138 18-364)
human CD33 G88A = human CD33 G88A (human, UniProt P20138 18-364)
Chain of human CD33 G88A (P20138 18-364 G88A limits assumed): as the sequence (P20138 18-364 Q24A limits assumed) above, with A7Q, G71A counted along it

human CD33 F90A = human CD33 F90A (human, UniProt P20138 18-364)
human CD33 F21A = human CD33 F21A (human, UniProt P20138 18-364)

Chain of human CD33 W22A (P20138 18-364 W22A limits assumed): as the sequence (P20138 18-364 Q24A limits assumed) above, with W5A, A7Q counted along it

B1: Refmab #3 (antibody, V domains shown)
VH: QVQLVQSGAEVKKPGSSVKVSCKASGYTFTDYNMHWVRQAPGQGLEWIGYIYPYNGGTGYNQKFKSKATITADESTNTAYMELSSLRSEDTAVYYCARGRPAMDYWGQGTLVTVSS
VL: DIQMTQSPSSLSASVGDRVTITCRASESVDNYGISFMNWFQQKPGKAPKLLIYAASNQGSGVPSRFSGSGSGTDFTLTISSLQPDDFATYYCQQSKEVPWTFGQGTKVEIK
notes: Full-length format is human IgG1 Fc silent (PG-LALA); The alanine scan used IgG or Fab
- Mean % WT Binding (human CD33 W22A): 58.6 % WT
- Mean % WT Binding (human CD33 L23A): 91.5 % WT
- Mean % WT Binding (human CD33 Q24A): 101 % WT
- Mean % WT Binding (human CD33 V25A): 109 % WT
- Mean % WT Binding (human CD33 Q26A): 124 % WT
- Mean % WT Binding (human CD33 E27A): 153 % WT
- Mean % WT Binding (human CD33 S28A): 193 % WT
- Mean % WT Binding (human CD33 V31A): 127 % WT
- Mean % WT Binding (human CD33 Q32A): 133 % WT
- Mean % WT Binding (human CD33 E33A): 94.9 % WT
- Mean % WT Binding (human CD33 G34A): 99.4 % WT
- Mean % WT Binding (human CD33 C36A): 102 % WT
- Mean % WT Binding (human CD33 P40A): 122 % WT
- Mean % WT Binding (human CD33 F43A): 49.3 % WT
- Mean % WT Binding (human CD33 H45A): 55.1 % WT
- Mean % WT Binding (human CD33 I47A): 165 % WT
- Mean % WT Binding (human CD33 Y49A): 86.6 % WT
- Mean % WT Binding (human CD33 D51A): 126 % WT
- Mean % WT Binding (human CD33 S54A): 106 % WT
- Mean % WT Binding (human CD33 V56A): 42.6 % WT
- Mean % WT Binding (human CD33 H57A): 182 % WT
- Mean % WT Binding (human CD33 Y59A): 145 % WT
- Mean % WT Binding (human CD33 A65S): 143 % WT
- Mean % WT Binding (human CD33 I66A): 126 % WT
- Mean % WT Binding (human CD33 S68A): 115 % WT
- Mean % WT Binding (human CD33 R69A): 188 % WT
- Mean % WT Binding (human CD33 D70A): 131 % WT
- Mean % WT Binding (human CD33 D18A): 37.8 % WT
- Mean % WT Binding (human CD33 P72A): 108 % WT
- Mean % WT Binding (human CD33 V73A): 149 % WT
- Mean % WT Binding (human CD33 T75A): 118 % WT
- Mean % WT Binding (human CD33 N76A): 148 % WT
- Mean % WT Binding (human CD33 K77A): 192 % WT
- Mean % WT Binding (human CD33 L78A): 113 % WT
- Mean % WT Binding (human CD33 Q80A): 123 % WT
- Mean % WT Binding (human CD33 Q83A): 103 % WT
- Mean % WT Binding (human CD33 E85A): 112 % WT
- Mean % WT Binding (human CD33 Q87A): 161 % WT
- Mean % WT Binding (human CD33 G88A): 88.3 % WT
- Mean % WT Binding (human CD33 F90A): 138 % WT
- Mean % WT Binding (human CD33 F21A): 13.6 % WT
